These are literature values, as cited in publication PMC4746476.

The term Kd denotes the free concentration of one partner at which half of the binding sites on the other are occupied at equilibrium, for simple one-to-one binding.

This series has as its target CCL21 (Homo sapiens) (UniProt O00585).
Sequence of UniProt O00585 (O00585 24-134): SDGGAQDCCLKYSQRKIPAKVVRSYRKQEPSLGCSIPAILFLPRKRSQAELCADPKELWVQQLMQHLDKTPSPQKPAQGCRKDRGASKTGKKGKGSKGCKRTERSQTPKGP

For the substance CCR7 (from UniProt P32248), the Kd was 0.01 µM.
